Reference: the supplement of paper PMC10126150
± gives the standard deviation of the averaged measurements.

Test system: ATP
Test: switch fluorescence ratio, 500 uM ATP over buffer (Cy3 cluster intensity, sum of 5 cycles each) (fold (ratio)); higher = stronger signal-on switching upon ATP binding; sequences stand for … in TCGTCGGCAGCGTCAGATGTGTATAAGAGACAGTTTTTTTTTTTTTTTTTTTTTTTTT…TC
Settings: aptamer strand: ATP DNA aptamer (quencher-CACCTGGGGGAGTATTGCGGAGGAAGG + anchor), 100 nM annealed; ATP concentration: 500 uM
Outline: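 Values give the fluorescence ratio for each switch-domain sequence, averaged from per-cluster ratios of summed target-cycle to summed buffer-cycle Cy3 intensity. The Cy3-labelled switching-strand clusters sat on a modified Illumina MiSeq flow-cell, were annealed to 100 nM quencher-labelled ATP aptamer, and were imaged in selection buffer, then after 15 min with 500 uM ATP at 22 °C. Five cycles ran with NaOH stripping and re-annealing between them, and clusters outside 100-1000 RFU were excluded.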
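Also: ATP exposure 15 min at 22 °C before imaging.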

| Sequence | switch fluorescence ratio |
| --- | --- |
| CAGGGGGTAT | 0.997 ± 0.026 |
| CAGGGTGCCA | 1.003 ± 0.0003 |
| CAGGTAAAAG | 1.01 ± 0.035 |
| CAGGTACATT | 1.02 ± 0.049 |
| CAGGTAGATG | 0.9959 ± 0.0086 |
| CAGGTAGGGT | 1.01 ± 0.052 |
| CAGGTAGGTA | 0.977 ± 0.014 |
| CAGGTAGTCT | 0.997 ± 0.024 |
| CAGGTATATG | 1.01 ± 0.017 |
| CAGGTATGAA | 1 ± 0.02 |
| CAGGTCGACT | 0.972 ± 0.03 |
| CAGGTGGTTG | 1.01 ± 0.035 |
| CAGGTGTATG | 1.273 ± 0.0042 |
| CAGGTGTGGG | 1.2 ± 0.1 |
| CAGGTTCACC | 1.03 ± 0.012 |
| CAGGTTGTTC | 1.005 ± 0.0011 |
| CAGGTTTATA | 0.993 ± 0.022 |
| CAGGTTTGTT | 1.12 ± 0.17 |
| CAGTAAAGGG | 0.9703 ± 0.0059 |
| CAGTAGAGG | 0.979 ± 0.019 |
| CAGTAGATGG | 0.985 ± 0.024 |
| CAGTAGGCAA | 2 ± 0.15 |
| CAGTAGGCGC | 1.01 ± 0.011 |
| CAGTAGGGAG | 0.987 ± 0.022 |
| CAGTAGGGGG | 0.977 ± 0.068 |

| Sequence | switch fluorescence ratio |
| --- | --- |
| CAGTAGTAGT | 1.02 ± 0.0097 |
| CAGTAGTCGC | 1.01 ± 0.03 |
| CAGTATAAAG | 0.9738 ± 0.0068 |
| CAGTATCTGA | 1 ± 0.0047 |
| CAGTCATGCC | 0.971 ± 0.058 |
| CAGTCGGAGA | 1.02 ± 0.037 |
| CAGTCTGCTC | 1.05 ± 0.03 |
| CAGTCTGCTG | 1.0037 ± 0.00071 |
| CAGTCTGGTA | 0.9966 ± 0.0042 |
| CAGTGACTTT | 1.022 ± 0.0014 |
| CAGTGCATC | 0.972 ± 0.053 |
| CAGTGCGTTT | 1.01 ± 0.013 |
| CAGTGGATAC | 1.2218 ± 0.00027 |
| CAGTGGGAAA | 1.01 ± 0.029 |
| CAGTGGTGGG | 1.01 ± 0.04 |
| CAGTGTAGGG | 1.017 ± 0.01 |
| CAGTGTGCAG | 0.9602 ± 0.0028 |
| CAGTGTTAGG | 1 ± 0.034 |
| CAGTTAAGTA | 0.973 ± 0.028 |
| CAGTTAGAAA | 0.9952 ± 0.0075 |
| CAGTTCCCGG | 1.02 ± 0.063 |
| CAGTTCGTGT | 1.02 ± 0.022 |
| CAGTTGAACT | 1.0209 ± 0.00023 |
| CAGTTGACTC | 1 ± 0.072 |
| CAGTTGAGAA | 1.02 ± 0.011 |

| Sequence | switch fluorescence ratio |
| --- | --- |
| CAGTTGGACA | 0.967 ± 0.031 |
| CAGTTGGAGC | 0.981 ± 0.06 |
| CAGTTGGGAG | 1.01 ± 0.029 |
| CAGTTTAAGT | 0.993 ± 0.01 |
| CAGTTTTAGT | 1.01 ± 0.032 |
| CAGTTTTTGG | 0.992 ± 0.013 |
| CATAAAACGG | 1.0263 ± 8.3e-05 |
| CATAAAGAGT | 0.996 ± 0.01 |
| CATAAATGTT | 1.02 ± 0.016 |
| CATAACGTAC | 1.97 ± 0.21 |
| CATAAGATCC | 0.994 ± 0.025 |
| CATAAGTTAT | 1.02 ± 0.02 |
| CATAATGGTG | 1.02 ± 0.013 |
| CATACGTAGT | 1.01 ± 0.034 |
| CATACTTTTT | 1.02 ± 0.018 |
| CATAGAGTTG | 1.03 ± 0.084 |
| CATAGCCGGT | 1.012 ± 0.0031 |
| CATAGCGATA | 3.48 ± 0.28 |
| CATAGGCATT | 1.03 ± 0.016 |
| CATAGGCCGT | 1.03 ± 0.047 |
| CATAGGGCAG | 1.03 ± 0.012 |
| CATAGGGGCG | 0.984 ± 0.023 |
| CATAGTTGCG | 1.02 ± 0.04 |
| CATAGTTGTT | 1.025 ± 0.0018 |
| CATAGTTTTT | 1.02 ± 0.025 |

| Sequence | switch fluorescence ratio |
| --- | --- |
| CATATACGAG | 1.11 ± 0.015 |
| CATATCATAC | 1.079 ± 0.0078 |
| CATATCTAAG | 1.002 ± 0.0019 |
| CATATCTAGC | 0.997 ± 0.034 |
| CATATGATTT | 0.993 ± 0.019 |
| CATATGGGCG | 1.03 ± 0.064 |
| CATATTATGT | 1.02 ± 0.011 |
| CATCATTATA | 0.9866 ± 0.0079 |
| CATCCTTTTA | 1.054 ± 0.0037 |
| CATCGATGGT | 1.004 ± 0.0026 |
| CATCGATGTT | 1.025 ± 0.0064 |
| CATCGGCCGC | 1.0223 ± 0.00032 |
| CATCGGCGAT | 1.56 ± 0.038 |
| CATCGGGTAG | 0.996 ± 0.02 |
| CATCGTAATT | 1.07 ± 0.042 |
| CATCGTGACT | 0.994 ± 0.028 |
| CATCGTGCTG | 0.978 ± 0.052 |
| CATCGTGGTA | 1.04 ± 0.11 |
| CATCTATTTT | 1 ± 0.035 |
| CATCTCGTTT | 1.02 ± 0.042 |
| CATCTGGGCA | 1.03 ± 0.013 |
| CATCTGGTGC | 1.63 ± 0.19 |
| CATCTTCGCT | 1.0246 ± 7.4e-05 |
| CATCTTGAAA | 1.028 ± 0.0097 |
| CATGAAGGTA | 0.9566 ± 0.0087 |

| Sequence | switch fluorescence ratio |
| --- | --- |
| CATGAATGGG | 1.01 ± 0.032 |
| CATGAATTTT | 0.982 ± 0.047 |
| CATGACGGTT | 0.978 ± 0.046 |
| CATGAGGGGG | 1.01 ± 0.059 |
| CATGAGTTGG | 0.966 ± 0.041 |
| CATGATACGG | 1.03 ± 0.011 |
| CATGATGCTG | 1.01 ± 0.033 |
| CATGATGGAG | 0.999 ± 0.032 |
| CATGCGCTGG | 1.17 ± 0.13 |
| CATGCTGCGG | 0.999 ± 0.026 |
| CATGCTGGGC | 1.0235 ± 0.00067 |
| CATGCTGTA | 0.981 ± 0.025 |
| CATGGCCAGG | 1.06 ± 0.079 |
| CATGGCGAAG | 1 ± 0.034 |
| CATGGCGGAG | 1.03 ± 0.023 |
| CATGGGATGG | 1.01 ± 0.0074 |
| CATGGGGAAG | 1.02 ± 0.011 |
| CATGGGGCGC | 1.012 ± 0.0071 |
| CATGGGTTCG | 1 ± 0.0066 |
| CATGGGTTTG | 0.9923 ± 0.0031 |
| CATGGTTGGG | 0.984 ± 0.037 |
| CATGGTTTTG | 1 ± 0.023 |
| CATGTAATTG | 1.02 ± 0.015 |
| CATGTAGTA | 0.987 ± 0.028 |
| CATGTATGGG | 0.9833 ± 0.0095 |

| Sequence | switch fluorescence ratio |
| --- | --- |
| CATGTCTGCT | 0.9777 ± 0.0032 |
| CATGTGCGAG | 1.01 ± 0.021 |
| CATGTGGGGG | 0.985 ± 0.027 |
| CATGTGTGGG | 1.01 ± 0.029 |
| CATGTTGGCT | 1.012 ± 0.0039 |
| CATGTTGGTT | 0.992 ± 0.032 |
| CATTAAGGTT | 0.996 ± 0.01 |
| CATTAATCAT | 0.995 ± 0.048 |
| CATTAATGTA | 0.9977 ± 0.0033 |
| CATTAGAGAC | 1.03 ± 0.012 |
| CATTAGGCAA | 1.696 ± 0.0032 |
| CATTAGGCTG | 1.02 ± 0.015 |
| CATTAGGTGT | 1.16 ± 0.037 |
| CATTATCACG | 1.075 ± 0.01 |
| CATTATGGGA | 1.009 ± 0.0063 |
| CATTCCCTGA | 0.981 ± 0.011 |
| CATTCGGGGG | 0.997 ± 0.016 |
| CATTCGTCGC | 1.12 ± 0.026 |
| CATTCTGTGT | 1.019 ± 0.0023 |
| CATTGAAAGA | 1.01 ± 0.038 |
| CATTGAAGTG | 0.986 ± 0.053 |
| CATTGAATAT | 0.996 ± 0.043 |
| CATTGAATCT | 1.02 ± 0.02 |
| CATTGACCTT | 1.23 ± 0.067 |
| CATTGCAGTG | 1.03 ± 0.02 |

| Sequence | switch fluorescence ratio |
| --- | --- |
| CATTGCTTTT | 0.991 ± 0.024 |
| CATTGGACCT | 1.29 ± 0.089 |
| CATTGGAGCA | 1.027 ± 0.0086 |
| CATTGGGGAG | 1.01 ± 0.026 |
| CATTGGGGGA | 0.983 ± 0.014 |
| CATTGGGTTG | 0.9633 ± 0.0019 |
| CATTGGTAAT | 1.018 ± 0.0059 |
| CATTGGTCAT | 0.995 ± 0.045 |
| CATTGTAAAG | 1.02 ± 0.033 |
| CATTGTGGGT | 0.975 ± 0.019 |
| CATTGTTATC | 1.08 ± 0.085 |
| CATTGTTGAC | 0.961 ± 0.02 |
| CATTTAATGG | 0.997 ± 0.028 |
| CATTTATAAT | 1.03 ± 0.02 |
| CATTTATCCT | 1.07 ± 0.024 |
| CATTTATGGG | 1.015 ± 0.0031 |
| CATTTCAGGT | 1.03 ± 0.069 |
| CATTTCGGGT | 0.992 ± 0.034 |
| CATTTCTGAG | 1.008 ± 0.0061 |
| CATTTCTGTT | 1.004 ± 0.0047 |
| CATTTGAAGA | 1.01 ± 0.019 |
| CATTTGACGG | 0.995 ± 0.024 |
| CATTTGAGGG | 0.988 ± 0.034 |
| CATTTGGAAG | 1.02 ± 0.061 |
| CATTTGGGCT | 1.03 ± 0.039 |

| Sequence | switch fluorescence ratio |
| --- | --- |
| CATTTTAGGC | 1.04 ± 0.067 |
| CATTTTCTAA | 1.04 ± 0.047 |
| CATTTTGGGA | 0.979 ± 0.03 |
| CATTTTGGTC | 1.002 ± 0.0039 |
| CATTTTGTGC | 0.988 ± 0.052 |
| CATTTTGTTT | 0.998 ± 0.054 |
| CATTTTTGGG | 0.98798 ± 0.00089 |
| CATTTTTTTT | 0.995 ± 0.02 |
| CCAAAAGGTT | 1.01 ± 0.017 |
| CCAAAATTGG | 1.018 ± 0.0052 |
| CCAAAGAATT | 1.03 ± 0.059 |
| CCAAAGATAT | 1.09 ± 0.03 |
| CCAAAGCCTC | 2.69 ± 0.21 |
| CCAAAGGGCC | 1.01 ± 0.071 |
| CCAAAGGGGT | 1.06 ± 0.046 |
| CCAAAGTACG | 1.25 ± 0.018 |
| CCAACATGGG | 1.03 ± 0.02 |
| CCAACGGCCA | 1.2 ± 0.049 |
| CCAACGGGGG | 1.061 ± 0.0019 |
| CCAAGCAGGG | 1.66 ± 0.059 |
| CCAAGGGAAA | 0.9822 ± 0.0032 |
| CCAAGGGGGA | 1.09 ± 0.1 |
| CCAAGGTTCG | 0.945 ± 0.053 |
| CCAAGTAATT | 1.2 ± 0.019 |
| CCAAGTAGGC | 1.13 ± 0.022 |
